± gives the uncertainty stated by the source.
Test: self-splicing fitness, log relative to wild type (ln ratio); higher = more splicing; Tetrahymena group I intron in knt gene, E. coli kanamycin selection, DiMSum; sequences stand for … in CUCUCU…GGAGGGAAAAGUUAUCAGGCAUGCACCUGGUAGCUAGUCUUUAAACCAAUAGAUUGCAUCGGUUUAAAAGGCAAGACCGUCAAAUUGCGGGAAAGGGGUCAACAGCCGUUCAGUACCAAGUCUCAGGGGAAACUUUGAGAUGGCCUUGCAAAGGGUAUGGUAAUAAGCUGACGGACAUGGUCCUAACCACGCAGCCAAGUCCUAAGUCAACAGAUCUUCUGUUGAUAUGGAUGCAGUUCACAGACUAAAUGUCGGUCGGGGAAGAUGUAUUCUUCUCAUAAGAUAUAGUCGGACCUCUCCUUAAUGGGAGCUAGCGGAUGAAGUGAUGCAACACUGGAGCCGCUGGGAACUAAUUUGUAUGCGAAAGUAUAUUGAUUAGUUUUGGAGUACUCGUGGUCG
Procedure, shortened: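 Colonies from six replicate transformations of E. coli BL21(DE3) were pooled and amplicon-sequenced on an Illumina HiSeq 2500. The library placed an intron with all eight P1ex-region nucleotides randomised inside the knt kanamycin-resistance gene on pET-22b(+), and cells grew overnight at 37°C or 30°C on LB agar with or without 25 μg/mL kanamycin (plus 100 μg/mL carbenicillin, 50 μM IPTG, 0.2% rhamnose). Fitness is the DiMSum error-weighted combination of wild-type-normalised replicate fold changes, kanamycin versus none.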

AUGCAGCAAUAUUACGGUCU
self-splicing fitness (ln) (30 °C): -0.211 ± 0.078
self-splicing fitness (ln) (37 °C): 0.0315 ± 0.091

GGCCAGCAAUAUUACGAACA
self-splicing fitness (ln) (30 °C): -3.34 ± 0.28
self-splicing fitness (ln) (37 °C): -2.03 ± 0.19

CCUAAGCAAUAUUACGAUAA
self-splicing fitness (ln) (30 °C): -2.87 ± 0.2
self-splicing fitness (ln) (37 °C): -3.37 ± 0.28

CUUAAGCAAUAUUACGGUUU
self-splicing fitness (ln) (30 °C): -4.49 ± 0.3
self-splicing fitness (ln) (37 °C): -2.88 ± 0.4

GAAGAGCAAUAUUACGCGCG
self-splicing fitness (ln) (30 °C): -2.21 ± 0.3
self-splicing fitness (ln) (37 °C): -1.36 ± 0.22

UUGCAGCAAUAUUACGCGCU
self-splicing fitness (ln) (30 °C): -1.88 ± 0.18
self-splicing fitness (ln) (37 °C): -0.656 ± 0.19

UAGGAGCAAUAUUACGGGUC
self-splicing fitness (ln) (30 °C): -2.64 ± 0.19

UCGGAGCAAUAUUACGCUAC
self-splicing fitness (ln) (30 °C): -2.11 ± 0.34

AUCGAGCAAUAUUACGUUAC
self-splicing fitness (ln) (30 °C): -3.04 ± 0.28
self-splicing fitness (ln) (37 °C): -1.82 ± 0.27

CGACAGCAAUAUUACGAACG
self-splicing fitness (ln) (30 °C): -0.656 ± 0.11
self-splicing fitness (ln) (37 °C): -0.117 ± 0.16

UGUAAGCAAUAUUACGGCAG
self-splicing fitness (ln) (30 °C): -0.191 ± 0.091
self-splicing fitness (ln) (37 °C): 0.0264 ± 0.11

AGCGAGCAAUAUUACGGAGG
self-splicing fitness (ln) (30 °C): -3.59 ± 0.47
self-splicing fitness (ln) (37 °C): -1.53 ± 0.33

UCGUAGCAAUAUUACGUAAG
self-splicing fitness (ln) (30 °C): -2.62 ± 0.23
self-splicing fitness (ln) (37 °C): -2.58 ± 0.32

CCACAGCAAUAUUACGGCGU
self-splicing fitness (ln) (30 °C): -3.24 ± 0.21
self-splicing fitness (ln) (37 °C): -2.75 ± 0.31

ACUUAGCAAUAUUACGAUCG
self-splicing fitness (ln) (30 °C): -1.4 ± 0.11
self-splicing fitness (ln) (37 °C): -1.23 ± 0.14

CAGCAGCAAUAUUACGCACA
self-splicing fitness (ln) (30 °C): -0.847 ± 0.088
self-splicing fitness (ln) (37 °C): -0.607 ± 0.093

AUCAAGCAAUAUUACGACGU
self-splicing fitness (ln) (30 °C): 0.145 ± 0.071
self-splicing fitness (ln) (37 °C): -0.14 ± 0.067

GCCAAGCAAUAUUACGAGUC
self-splicing fitness (ln) (30 °C): -1.58 ± 0.1
self-splicing fitness (ln) (37 °C): -1.1 ± 0.12

CCCUAGCAAUAUUACGUUCU
self-splicing fitness (ln) (30 °C): -4.33 ± 0.23
self-splicing fitness (ln) (37 °C): -3.61 ± 0.19

UUUCAGCAAUAUUACGUGGC
self-splicing fitness (ln) (30 °C): -2.68 ± 0.15
self-splicing fitness (ln) (37 °C): -2.94 ± 0.22

GAACAGCAAUAUUACGCGAG
self-splicing fitness (ln) (30 °C): -2.2 ± 0.099
self-splicing fitness (ln) (37 °C): -1.32 ± 0.11

UGGGAGCAAUAUUACGAGUA
self-splicing fitness (ln) (30 °C): -3.85 ± 0.43
self-splicing fitness (ln) (37 °C): -2.59 ± 0.44

AAAGAGCAAUAUUACGAAAC
self-splicing fitness (ln) (30 °C): -3.23 ± 0.44
self-splicing fitness (ln) (37 °C): -2.67 ± 0.48

ACAAAGCAAUAUUACGCAAG
self-splicing fitness (ln) (30 °C): -1.45 ± 0.079
self-splicing fitness (ln) (37 °C): 0.00248 ± 0.087

GUAGAGCAAUAUUACGUUUG
self-splicing fitness (ln) (30 °C): -2.91 ± 0.24
self-splicing fitness (ln) (37 °C): -2.23 ± 0.29

UCUUAGCAAUAUUACGUCUC
self-splicing fitness (ln) (30 °C): -3.09 ± 0.3
self-splicing fitness (ln) (37 °C): -2.39 ± 0.39

AAAAAGCAAUAUUACGGGCU
self-splicing fitness (ln) (30 °C): -1.55 ± 0.074
self-splicing fitness (ln) (37 °C): -1.24 ± 0.099

GUGUAGCAAUAUUACGGGUC
self-splicing fitness (ln) (30 °C): -2.47 ± 0.2
self-splicing fitness (ln) (37 °C): -2.49 ± 0.28

CCCAAGCAAUAUUACGUACA
self-splicing fitness (ln) (30 °C): -2.94 ± 0.16
self-splicing fitness (ln) (37 °C): -3.39 ± 0.23

CCCAAGCAAUAUUACGACAA
self-splicing fitness (ln) (30 °C): -3.14 ± 0.17
self-splicing fitness (ln) (37 °C): -3.12 ± 0.22

GCUAAGCAAUAUUACGCUUG
self-splicing fitness (ln) (30 °C): -3.24 ± 0.17
self-splicing fitness (ln) (37 °C): -1.71 ± 0.18

CUAAAGCAAUAUUACGAAGC
self-splicing fitness (ln) (37 °C): -2.06 ± 0.42

ACGGAGCAAUAUUACGUUAC
self-splicing fitness (ln) (37 °C): -2.56 ± 0.22

CCGGAGCAAUAUUACGUGCC
self-splicing fitness (ln) (30 °C): -2.1 ± 0.38
self-splicing fitness (ln) (37 °C): -2.94 ± 0.35

AUACAGCAAUAUUACGGAUG
self-splicing fitness (ln) (30 °C): -2.7 ± 0.2
self-splicing fitness (ln) (37 °C): -2.05 ± 0.14

CCGUAGCAAUAUUACGGUAG
self-splicing fitness (ln) (30 °C): -3.48 ± 0.2
self-splicing fitness (ln) (37 °C): -2.97 ± 0.24

UUUUAGCAAUAUUACGGGUC
self-splicing fitness (ln) (30 °C): -3.73 ± 0.4
self-splicing fitness (ln) (37 °C): -2.96 ± 0.38

UGUAAGCAAUAUUACGAGCA
self-splicing fitness (ln) (30 °C): -0.193 ± 0.14
self-splicing fitness (ln) (37 °C): 0.404 ± 0.2

AACAAGCAAUAUUACGUGCG
self-splicing fitness (ln) (30 °C): -1.17 ± 0.05
self-splicing fitness (ln) (37 °C): -0.476 ± 0.064

GCUGAGCAAUAUUACGGGCC
self-splicing fitness (ln) (30 °C): -2.39 ± 0.32
self-splicing fitness (ln) (37 °C): -2.27 ± 0.39

UGUCAGCAAUAUUACGAUGC
self-splicing fitness (ln) (30 °C): -2.28 ± 0.42

GCCCAGCAAUAUUACGAAAU
self-splicing fitness (ln) (30 °C): -1.7 ± 0.068
self-splicing fitness (ln) (37 °C): -1.36 ± 0.089

CCCAAGCAAUAUUACGGCUC
self-splicing fitness (ln) (30 °C): -2.28 ± 0.21
self-splicing fitness (ln) (37 °C): -2.59 ± 0.29

CGGAAGCAAUAUUACGUCCA
self-splicing fitness (ln) (30 °C): -0.281 ± 0.097
self-splicing fitness (ln) (37 °C): 0.585 ± 0.13

CUACAGCAAUAUUACGCCCA
self-splicing fitness (ln) (30 °C): -2.99 ± 0.27
self-splicing fitness (ln) (37 °C): -1.85 ± 0.23

UACCAGCAAUAUUACGAAAU
self-splicing fitness (ln) (30 °C): -2.64 ± 0.14
self-splicing fitness (ln) (37 °C): -1.26 ± 0.13

UCACAGCAAUAUUACGCAUA
self-splicing fitness (ln) (30 °C): -2.02 ± 0.097
self-splicing fitness (ln) (37 °C): -1.68 ± 0.093

GUUUAGCAAUAUUACGCUUG
self-splicing fitness (ln) (30 °C): -1.18 ± 0.099
self-splicing fitness (ln) (37 °C): 0.632 ± 0.15

GCCCAGCAAUAUUACGCGAA
self-splicing fitness (ln) (30 °C): -2.09 ± 0.071
self-splicing fitness (ln) (37 °C): -0.554 ± 0.072

CAAAAGCAAUAUUACGGAUG
self-splicing fitness (ln) (30 °C): -2.76 ± 0.11
self-splicing fitness (ln) (37 °C): -1.4 ± 0.14

CAUCAGCAAUAUUACGGUGC
self-splicing fitness (ln) (30 °C): -3.55 ± 0.43
self-splicing fitness (ln) (37 °C): -3.74 ± 0.46

AUAUAGCAAUAUUACGCCCU
self-splicing fitness (ln) (30 °C): -0.155 ± 0.15
self-splicing fitness (ln) (37 °C): 0.32 ± 0.18

AGGUAGCAAUAUUACGCGAA
self-splicing fitness (ln) (30 °C): -1.61 ± 0.017
self-splicing fitness (ln) (37 °C): -0.832 ± 0.035

CAUGAGCAAUAUUACGUCGC
self-splicing fitness (ln) (30 °C): -3.59 ± 0.29
self-splicing fitness (ln) (37 °C): -2.13 ± 0.42

GCGAAGCAAUAUUACGAGCG
self-splicing fitness (ln) (30 °C): -2.04 ± 0.14
self-splicing fitness (ln) (37 °C): -1.11 ± 0.19

CAUGAGCAAUAUUACGCGGA
self-splicing fitness (ln) (30 °C): -2.6 ± 0.2
self-splicing fitness (ln) (37 °C): -1.64 ± 0.17

GCUGAGCAAUAUUACGCCAG
self-splicing fitness (ln) (30 °C): -3.69 ± 0.25
self-splicing fitness (ln) (37 °C): -2.73 ± 0.41

UCCAAGCAAUAUUACGUCCA
self-splicing fitness (ln) (30 °C): -1.56 ± 0.11
self-splicing fitness (ln) (37 °C): -0.691 ± 0.11

ACUCAGCAAUAUUACGGUGG
self-splicing fitness (ln) (30 °C): -4.04 ± 0.22
self-splicing fitness (ln) (37 °C): -2.67 ± 0.18

AAGCAGCAAUAUUACGAUCA
self-splicing fitness (ln) (30 °C): -1.28 ± 0.091
self-splicing fitness (ln) (37 °C): -0.405 ± 0.11

UAAAAGCAAUAUUACGAUUA
self-splicing fitness (ln) (30 °C): 0.154 ± 0.073
self-splicing fitness (ln) (37 °C): 0.0591 ± 0.088
